Values joined by “and” are separate entries in the source; they are usually repeats but may differ in a detail not shown here. Identical values can stand only once.
Target: Nogo-B receptor construct NgBR(79–293) (human) (UniProt Q96E22)
Test: SEC; size exclusion (Superdex 200 10/300 GL) in-line with synchrotron SAXS; 20 mg/mL NgBR(79-293), 20 mM HEPES pH 7.5, 150 mM NaCl, 5% glycerol, 1 mM TCEP, 25°C

stoichiometry N: 2 and 4
Substance: Nogo-B receptor construct NgBR(79–293) (from UniProt Q96E22 79-293) (domain or fragment)
